In PMC11919738, “Mechanism for Vipp1 spiral formation, ring biogenesis, and membrane repair” (Nature Structural & Molecular Biology, 2024):

B1: Vipp1 (vesicle-inducing protein in plastids 1) from Nostoc punctiforme (natural protein, UniProt B2J6D9 1-258, looked up)
chain: MGLFDRIKRVVSSNLNDLVNKAEDPEKMLEQAILEMQEDLVQLRQGVAQAIAAQKRSEKQYNDAQNEINKWQRNAQLALQKGDENLARQALERKKTYTDTSAALKASLDTQSTQVETLKRNLIQLESKISEAKTKKEMLKARITTAKAQEQLQGMVRGMNTSSAMSAFERMEEKVLMQESRAQALGELAGADLETQFAQLEGGSDVDDELAALKAQMLPPATPVTQAQLPPQQETTPAKSNEVVDAELDSLRKQLDQL
notes: Vipp1, Nostoc punctiforme, UniProt B2J6D9; model built for amino acids 1-214 in Vipp1L1; Forms polymers (helical filaments, rings, sheets, spirals); the number of subunits is not fixed; RingsHS are the same protein purified with 50 mM NaCl in the SEC buffer; also called IM30; native Vipp1; source: E. coli C43 (DE3) with pspA gene knockout, purified (amylose resin, TEV, Ni-NTA, SEC); not shown: …
B2: Vipp1-F197K/L200K (Vipp1 interface 3 mutant) (natural protein, Nostoc punctiforme, UniProt B2J6D9 1-258, looked up)
chain: MGLFDRIKRVVSSNLNDLVNKAEDPEKMLEQAILEMQEDLVQLRQGVAQAIAAQKRSEKQYNDAQNEINKWQRNAQLALQKGDENLARQALERKKTYTDTSAALKASLDTQSTQVETLKRNLIQLESKISEAKTKKEMLKARITTAKAQEQLQGMVRGMNTSSAMSAFERMEEKVLMQESRAQALGELAGADLETQKAQKEGGSDVDDELAALKAQMLPPATPVTQAQLPPQQETTPAKSNEVVDAELDSLRKQLDQL
notes: Vipp1, Nostoc punctiforme, UniProt B2J6D9, with F197K and L200K; Co-purified with E. coli membrane (lipid bilayer in the filament lumen); source: E. coli C43 (DE3) with pspA gene knockout, purified (amylose resin, TEV, Ni-NTA, SEC); not shown: His6, N-terminal, cleaved; MBP, N-terminal, cleaved
B3: Vipp1Δα6_(1–219) (Vipp1 with the C-terminal domain truncated) (domain or fragment, Nostoc punctiforme, UniProt B2J6D9 1-219, looked up)
chain: MGLFDRIKRVVSSNLNDLVNKAEDPEKMLEQAILEMQEDLVQLRQGVAQAIAAQKRSEKQYNDAQNEINKWQRNAQLALQKGDENLARQALERKKTYTDTSAALKASLDTQSTQVETLKRNLIQLESKISEAKTKKEMLKARITTAKAQEQLQGMVRGMNTSSAMSAFERMEEKVLMQESRAQALGELAGADLETQFAQLEGGSDVDDELAALKAQMLP
notes: model built for amino acids 1-217; also called Vipp1_(Δα6_L2); Vipp1_(Δα6_L3); source: E. coli C43 (DE3) with pspA gene knockout, purified (amylose resin, TEV, Ni-NTA, SEC); not shown: His6, N-terminal, cleaved; MBP, N-terminal, cleaved

Molecular target: the molecule itself
Assay: cryo-EM structure; helical filaments of purified protein, 60 µM, low-salt SEC buffer, helical reconstruction

Binding result, binds:
B1
B2
B3
